Data: PMC6123711, “Conformational signatures in β-arrestin2 reveal natural biased agonism at a G-protein-coupled receptor” (Communications Biology, 2018)
“Also recorded” adds a separate entry of the source.

B1: Spexin (peptide, UniProt Q9BT56 27-116, looked up)
Spexin: APQRLLERRNWTPQAMLYLKGAQGRRFISDQSRRKDLSDRPLPERRSPNPQLLTIPEAATILLASLQKSPEDEEKNFDQTRFLEDSLLNW
modifications: Spexin
notes: endogenous peptide ligand of Galr2 and Galr3; synthesized by AnyGen

What was measured:
Galr2 = Galr2 internalization assay based on HiBiT technology; assay type: cell-based, human; conditions: HEK293 cells; agonist 30 min; two independent experiments in triplicate
Experimental: The HiBiT protein tagging system, like NanoBiT technology, consists of two subunits: the large fragment (LgBiT) with 156 amino acids and the small fragment of Nluc (SmBiT-High-affinity) with only 11 amino acids that has a very high affinity to LgBit. To quantify Galr2 at the cell surface, cells expressing Galr2 tagged with the SmBiT-High-affinity were treated with cell-impermeable LgBiT along with the Nluc substrate furimazine. SmBiT-High-affinity-Galr2 on the cell surface binds to LgBiT which produces a luminescent signal, while SmBiT-High-affinity-Galr2 inside the cells cannot bind to LgBiT (Fig. 4a).
Fig. 4 Internalization of Galr2. a Schematic representation of the internalization assay. […] Before ligand stimulation, cells were pretreated with 30 μM Cmpd101 (a GRK2/3 inhibitor) for 30 min, 25 μM PitStop 2 (a Clathrin inhibitor) for 15 min, and 80 μM Dynasore (a Dynamin inhibitor) for 40 min. […] Remaining cell surface receptors were determined by measuring the luminescent signal produced by the binding between LgBiT and the Galr2-SmBiT-High affinity. Each data point represents mean ± s. e. m. of two independent experiments performed in triplicate
Quantification of bias between each pathway was performed using Galanin as a reference ligand. All incubations for the different signaling assays were performed in serum-free medium to prevent peptide degradation.
Internalization assays were performed using the Nano-Glo HiBiT extracellular detection system acquired from Promega Corporation (Cat. No. N2421). The day before transfection, HEK293 cells were seeded in 96-well plates at a density of 2.5 × 10^4 cells per well. The following day, cells were transfected with a mixture prepared containing 0.5 ng of SmBiT-high-affinity-Galr2 construct and 0.2 μl Lipofectamine 2000 (Invitrogen) added to each well. […] Then luminescence values were recorded immediately (Synergy 2 Multi-Mode Microplate Reader BioTek). […]

human Galr2 = assay: Recruitment of β-arrestin2-FlasH1-3 to Galr2 (NanoBit); assay type: cell-based; conditions: NanoBit luminescence
Text: To investigate the effects of GPCR activation on the dynamics of β-arrestin2 conformation, we developed a series of FlasH BRET conformational biosensors[31],[32] by inserting the six-amino-acid motif, CCPGCC, immediately after the amino acid residue 140 (FlasH1), 263 (FlasH2), and 410 (FlasH3), respectively, into the human β-arrestin2 (Fig. 7a, b). Due to its characteristics (e.g., small size, stable, and bright and sustained luminescence)[33], we covalently linked the Nluc to the N terminus of β-arrestin2 during probe design. Each probe (Nluc–β-arrestin2–FlasH1, 2, and 3) was designed to measure BRET between Nluc and a fluorescein arsenical acceptor located at one of three positions along β-arrestin2. […] All three ligands were able to recruit these β-arrestin2–FlasH constructs to induce luminescence signals, although some signals were lower than that of wild-type β-arrestin2 (Fig. 7c). […]
The arrows indicate the time for treatment with the corresponding agonist. d Nluc–β-arrestin2–FlasH1-3 “conformational hallmarks” of β-arrestin2 by binding to Galr2. The bar graphs depict mean ± s.e.m. values of independent biological replicates (n = 3). *P < 0.05, **P < 0.005, statistically significant differences versus Galanin-stimulated control as determined by a one-way analysis of variance (ANOVA). […]

[1] = system: human β-arrestin2 (Galr2-stimulated); assay: Intramolecular FlasH BRET at β-arrestin2 conformational biosensors; assay type: cell-based; conditions: HEK293 cells, 10 μM agonist
Text: To investigate the effects of GPCR activation on the dynamics of β-arrestin2 conformation, we developed a series of FlasH BRET conformational biosensors[31],[32] by inserting the six-amino-acid motif, CCPGCC, immediately after the amino acid residue 140 (FlasH1), 263 (FlasH2), and 410 (FlasH3), respectively, into the human β-arrestin2 (Fig. 7a, b). Due to its characteristics (e.g., small size, stable, and bright and sustained luminescence)[33], we covalently linked the Nluc to the N terminus of β-arrestin2 during probe design. Each probe (Nluc–β-arrestin2–FlasH1, 2, and 3) was designed to measure BRET between Nluc and a fluorescein arsenical acceptor located at one of three positions along β-arrestin2. We hypothesized that observing changes in BRET efficiency from multiple sites would produce a β-arrestin2 conformational hallmark characteristic for each ligand[31]. We used a structural complementation assay based on NanoBit technology to test whether the insertion of the FlasH motif would have an effect on β-arrestin2 recruitment. All three ligands were able to recruit these β-arrestin2–FlasH constructs to induce luminescence signals, although some signals were lower than that of wild-type β-arrestin2 (Fig. 7c). […]
Intramolecular BRET at β-arrestin2 conformational biosensors was measured based on the steps and procedures previously described. […]

Row | Molecule | Galr2 internalization (decrease of cell-surface luminescent signal) (Galr2) | recruitment of β-arrestin2–FlasH1-3 constructs (human Galr2) | ΔNet BRET in Nluc–β-arrestin2–FlasH1-3 versus Galanin ([1]; 2 min, n = 3, each probe) | ΔNet BRET similarity between Spexin and Fmoc-dA4-dQ14 ([1]; FlasH1-3 biosensors)
1 | Galanin [reference compound] | significantly decreased the luminescent signal in a dose-dependent manner; also recorded: efficiently induced internalization in a dose-dependent manner | maximal response |  | 
2 | B1 | marginally induce internalization of the receptor; also recorded: Galr2 internalization was not detected; also recorded: did not detect Galr2 internalization |  | significantly different from those observed in Galanin | very similar between Spexin and Fmoc-dA4-dQ14 except for the FlasH3 conformational biosensor
